Test results taken from US12291578B2, “Anti-matrix metalloproteinase 7 (MMP-7) inhibitory antibody and uses thereof” (Yeda Research and Development Co. Ltd., priority 2019, dated 2025).
“Also recorded” adds a separate entry of the source. Where two headings read alike, the source gives them in different places.

Assays:
AsPC-1 cells [1] = experiment: Gemcitabine co-treatment, MTT cell death assay; format: cell-based; conditions: Homo sapiens, ASPC1, 72 h
Method: Gemcitabine co-treatment: 10,000 AsPC-1 cells/well were seeded into 96 well flat bottom plate and incubated overnight at in a humidified incubator at 37° C. with 5% CO2. Media in wells were replaced by serum free RPMI medium containing 2.33 μM GSM-192 or PBS and 0.05, 0.1, 0.5, 1, 5, 10, 40 and 80-μM gemcitabine. The plates were further incubated for 72 hours in a humidified incubator at 37° C. with 5% CO2. MTT solutions (M5655 SIGMA) was added at 10% of total culture volume (0.5 mg/ml MTT in RPMI/IMDM without phenol red) and after 3 hours incubation, plate was washed with PBS and solubilized using MTT solvent (0.1 N HCl in anhydrous isopropanol). The read out was obtained at […]. Cell death data was plotted as a function of the log of Gemcitabine concentration and fitted on a variable slope sigmoidal regression model (GraphPad prism 8.3.0). Further, an average of IC50 from 3 experimental repeats and corresponding standard deviation was calculated.

FasL in AsPC-1 cells = experiment: Western blot of FasL expression in cell lysates; format: cell-based, human; conditions: AsPC-1 cell lysates, 24 hours, sub lethal concentrations
Method: Western Blots: Treated cells were lysed with RIPA buffer containing protease inhibitors and shaken intermittently while stored in ice for 30 min. The debris was removed by centrifugation at 14,000×g and supernatant was used for BCA protein determination assay. Alternatively, culture supernatants were concentrated at least 10 times using 0.2 μm centricons. Once normalized to equal protein content, sample buffer was added and heated for 3 minutes at 95° C. The denatured samples were centrifuged for 5 min at 14,000×g before 25 μL was loaded onto SDS page gel and standard blotting procedures were followed (General Protocol for Western Blotting, BioRad bulletin 6376). Primary Abs used were MMP-7 (abcam, ab5706), Fas-L (abcam, ab15285), α Tubulin Ab (sc31779).
Anti LOXL-2 (Lysyl Oxidase like 2) mAb33, produced in a similar pipeline was used as an isotype control. […] To test for molecular markers of apoptosis, Fas ligand expression was analysed by Western blot analysis. AsPC-1 cells were treated with GSM-192 Fab for 24 hours at sub lethal concentrations.

MMP-12 = MMP-12 (Homo sapiens, UniProt P39900); experiment: Enzymatic activity of related MMPs (fluorogenic peptide); format: biochemical; conditions: in vitro
Method: (§1) MMP-7 enzymatic kinetic assay: The enzymatic activity of MMP-7 in the presence of GSM-192 Fab was measured at 37° C. by monitoring the hydrolysis of fluorogenic peptide Mca-Pro-Leu-Gly-Leu-Dpa-Ala-Arg-NH2 (SEQ ID NO: 10) at λex=340 nm and […] as described previously^30. A range of different concentrations of GSM-192 Fab (0-200 nM) were incubated with 10 nM of MMP-7 in 50 mM Tris-HCl buffer (pH 7.5 at 37° C.), 100 mM NaCl, 5 mM CaCl2, and 0.05% Brij-35 for 2 h at 37° C. The enzymatic reaction was initiated by addition of the fluorogenic peptide to a final concentration of 10 μM. Fluorescence was recorded immediately and continuously for 30 min.
(§2) Remarkably, considering that the immunization booster also included the common zinc motif, the antibody is fully selective for MMP-7. The effect of GSM-192 Fab fragment on the enzymatic activity of human MMP-7 was examined in vitro using a short fluorogenic peptide according to a standard protocol. The enzymatic activity of recombinant active MMP-7 was measured in the presence of increasing concentrations of the Fab fragment of GSM-192. […] Simultaneously the effect of the antibody on catalytic activity of related MMPs was measured.

MMP-9 = MMP-9 (Homo sapiens, UniProt P14780); experiment: as above; format: biochemical; conditions: in vitro
Method: as §1, §2

MMP-14 = MMP-14 (Homo sapiens, UniProt P50281); experiment: as above; format: biochemical; conditions: in vitro
Method: as §1, §2

AsPC-1 cells [2] = experiment: FACS Annexin-V apoptosis detection assay; format: cell-based, human; conditions: AsPC-1, 24 h, increasing dose
Method: FACS Annexin-V apoptosis detection assay: 70% confluent cells in 6 cm plates were treated with sterile GSM-192 Fab fragment/control anti LOXL-2 Fab fragment for 24 h and prepared for FACS using the Annexin-V FITC apoptosis detection kit (E Biosciences 88-8005-72) as described previously^53. The FACS acquisition was done using FACS LSR-II machine in Cell Quant software (Becton Dickinson) and further analysis on FlowJo software (Treestar, Inc., San Carlos, Calif.).

Chain of MMP-12 (P39900 106-470): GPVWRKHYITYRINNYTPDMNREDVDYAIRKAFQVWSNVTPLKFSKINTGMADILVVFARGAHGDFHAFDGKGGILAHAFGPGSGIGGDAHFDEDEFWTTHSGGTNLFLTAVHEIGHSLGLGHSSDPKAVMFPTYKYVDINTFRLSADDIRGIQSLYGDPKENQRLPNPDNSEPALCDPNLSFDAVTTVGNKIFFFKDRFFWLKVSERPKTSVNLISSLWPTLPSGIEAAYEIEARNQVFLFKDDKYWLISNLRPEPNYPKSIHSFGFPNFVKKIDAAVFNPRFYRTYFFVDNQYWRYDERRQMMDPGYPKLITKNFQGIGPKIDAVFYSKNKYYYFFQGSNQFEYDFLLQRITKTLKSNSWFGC
Chain of MMP-9 (P14780 94-707, species assumed): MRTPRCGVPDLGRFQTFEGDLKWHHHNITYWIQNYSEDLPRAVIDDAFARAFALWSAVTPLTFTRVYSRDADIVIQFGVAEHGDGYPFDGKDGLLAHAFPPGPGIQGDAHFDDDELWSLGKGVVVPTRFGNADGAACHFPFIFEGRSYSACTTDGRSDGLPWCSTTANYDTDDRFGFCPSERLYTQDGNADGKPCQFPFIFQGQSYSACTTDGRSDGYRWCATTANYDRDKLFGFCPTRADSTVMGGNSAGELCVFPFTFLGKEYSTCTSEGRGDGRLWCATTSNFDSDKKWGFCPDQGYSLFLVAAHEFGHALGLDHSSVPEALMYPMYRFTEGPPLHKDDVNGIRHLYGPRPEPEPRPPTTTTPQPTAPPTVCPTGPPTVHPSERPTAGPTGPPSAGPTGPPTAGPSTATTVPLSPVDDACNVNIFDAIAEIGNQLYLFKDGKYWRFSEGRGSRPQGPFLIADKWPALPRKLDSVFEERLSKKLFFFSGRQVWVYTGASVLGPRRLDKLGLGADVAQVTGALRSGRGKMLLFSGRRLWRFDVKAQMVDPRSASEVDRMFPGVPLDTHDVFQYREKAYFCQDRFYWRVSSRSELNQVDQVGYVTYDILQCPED

| Molecule | IC50 (AsPC-1 cells [1]; GEM+PBS group, 72 hours) | IC50 (AsPC-1 cells [1]; co-treatment with 2.33 uM GSM-192, 72 hours, read-out: IC50 of GEM) | FasL expression (FasL in AsPC-1 cells) | FasL expression (FasL in AsPC-1 cells; listed as anti MMP-7 Fab) | effect on catalytic activity of MMP-12 (MMP-12) | effect on catalytic activity of MMP-9 (MMP-9) | effect on catalytic activity of MMP-14 (MMP-14) | Annexin V related apoptosis (AsPC-1 cells [2]) |
| --- | --- | --- | --- | --- | --- | --- | --- | --- |
| Nc1ccn([C@@H]2O[C@H](CO)[C@@H](O)C2(F)F)c(=O)n1 [GEM, gemcitabine] | 127 ± 40.5 nM | 14.2 ± 1.52 nM | – | – | – | – | – | – |
| GSM-192 Fab: Fab fragment of GSM-192 obtained by papain digestion (antibody, V domains shown) VL: DIVTQSPASLAVSLGQRATISCRASESFDSYGNTFVHWYQQKPGQPPKLLIYLVSNLESGVPAGFRGRGSRTDFTLTIDPVEADDAATYYCQQNNEDPYTFGGGTKLEIKRA VH: EVQLQQSGPELVKPGASVKIPCKASGYTFTDYNMDWMKQSHGKSLEWIGHINPNNGGTFYNQKFKDKATFIVDKSSNTAYMELRSLTSEDTAVYFCARGGGLRRGPFAYWGQGTLVTVS | – | – | increase of Fas ligand (FasL) expression | overall increase in FasL levels | not affected | not affected | only negligibly affected | induce cell death via apoptosis; also recorded: increased Annexin V related apoptosis |
